Experimental data from publication PMC5974136.

Molecular target: Tyr24 (position 24, …)
Experiment: NMR
Settings: 10 C; no added salt (NaCl, KCl absent); 10 mM phosphate only; 10 mM phosphate buffer (initial pH 7), 0.1 mM DSS; soluble, predominantly disordered repetitive domain; about 1.5-2.2 mM protein

B1: MaSp1 repetitive domain 15-mer (15 contiguous copies of the consensus repeat of major ampullate spidroin 1) (Nephila clavipes (Trichonephila clavipes); … (protein)
chain: GRGGLGGQGAGAAAAAGGAGQGGYGGLGSQGTSGRGGLGGQGAGAAAAAGGAGQGGYGGLGSQGTSGRGGLGGQGAGAAAAAGGAGQGGYGGLGSQGTSGRGGLGGQGAGAAAAAGGAGQGGYGGLGSQGTSGRGGLGGQGAGAAAAAGGAGQGGYGGLGSQGTSGRGGLGGQGAGAAAAAGGAGQGGYGGLGSQGTSGRGGLGGQGAGAAAAAGGAGQGGYGGLGSQGTSGRGGLGGQGAGAAAAAGGAGQGGYGGLGSQGTSGRGGLGGQGAGAAAAAGGAGQGGYGGLGSQGTSGRGGLGGQGAGAAAAAGGAGQGGYGGLGSQGTSGRGGLGGQGAGAAAAAGGAGQGGYGGLGSQGTSGRGGLGGQGAGAAAAAGGAGQGGYGGLGSQGTSGRGGLGGQGAGAAAAAGGAGQGGYGGLGSQGTSGRGGLGGQGAGAAAAAGGAGQGGYGGLGSQGTSGRGGLGGQGAGAAAAAGGAGQGGYGGLGSQGTS
- pKa: 10.25 ± 0.02
